Patent US20240327544A1

Biological target: human FcγRIa expressed on transiently transfected CHO-S cells (human) (UniProt P12314)
Assay: flow cytometry, CHO-S cells transiently expressing human FcγRIa, PE-conjugated goat anti-human IgG F(ab')2, % PE+ cells

Sequence of human FcγRIa expressed on transiently transfected CHO-S cells (human) (P12314 16-374): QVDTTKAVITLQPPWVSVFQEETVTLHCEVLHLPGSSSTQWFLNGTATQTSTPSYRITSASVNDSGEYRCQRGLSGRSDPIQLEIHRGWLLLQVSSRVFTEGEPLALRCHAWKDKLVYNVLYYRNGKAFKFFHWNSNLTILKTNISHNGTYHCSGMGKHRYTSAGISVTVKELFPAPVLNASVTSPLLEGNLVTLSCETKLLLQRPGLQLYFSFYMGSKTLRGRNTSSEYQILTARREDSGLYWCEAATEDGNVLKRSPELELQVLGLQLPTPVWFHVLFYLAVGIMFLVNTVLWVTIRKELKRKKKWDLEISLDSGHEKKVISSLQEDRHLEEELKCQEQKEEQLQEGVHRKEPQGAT

Substance: nivolumab (antibody)
- EC50 (read off the curve): 0.2 µg/mL
